Legend:
[1] = target: Isoform 121 of human VEGF-A (Peprotech) (human) (UniProt P15692); assay: ELISA on coated antigen, 0.2 µg/mL, 9E10 detection
[2] = target: Isoform 121 of human VEGF-A (Peprotech) (human) (UniProt P15692); assay: ELISA on coated antigen, 2 µg/mL, 9E10 detection
[3] = target: Isoform 121 of human VEGF-A (Peprotech) (human) (UniProt P15692); assay: ELISA on coated antigen, 20 µg/mL, 9E10 detection
[4] = target: Isoform 121 of human VEGF-A (Peprotech) (human) (UniProt P15692); assay: phage ELISA on coated VEGF-A 121, without KDR-Fc
[5] = target: Human VEGF-A treated with DTT (reduced) (human) (UniProt P15692); assay: phage ELISA on DTT-reduced VEGF-A 121
Sequence of Human VEGF-A treated with DTT (reduced) (human) (P15692 other isoform, or with tags, fused parts or gaps limits assumed): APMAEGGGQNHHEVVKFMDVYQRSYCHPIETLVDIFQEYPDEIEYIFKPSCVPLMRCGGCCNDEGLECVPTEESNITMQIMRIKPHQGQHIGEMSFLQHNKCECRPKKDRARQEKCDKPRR

[6] = target: Isoform 121 of human VEGF-A (Peprotech) (human) (UniProt P15692); assay: phage ELISA on coated VEGF-A 121, competitor KDR-Fc 2 µg/mL
[7] = target: Isoform 121 of human VEGF-A (Peprotech) (human) (UniProt P15692); assay: phage ELISA on native VEGF-A 121

Sequence of Isoform 121 of human VEGF-A (Peprotech) (human) (P15692 other isoform, or with tags, fused parts or gaps): as the sequence (P15692 other isoform, or with tags, fused parts or gaps limits assumed) above

Row | Binder | Optical Density (492 nm) [1] [OD 492 nm] | Optical Density (492 nm) [2] [OD 492 nm] | Optical Density (492 nm) [3] [OD 492 nm] | Optical Density (492 nm) [4] [OD 492 nm] | Optical Density (492 nm) [5] [OD 492 nm] | Optical Density (492 nm) [6] [OD 492 nm] | Optical Density (492 nm) [7] [OD 492 nm]
1 | Fab 2H1-32 (Fab, V domains shown) VH: QVQLVQSGAEVKKPGESLKISCKGSGYSFTSYWIGWVRQMPGKGLEWMGIIYPGDSDTRYSPSFQGQVTISADKSISTAYLQWSSLKASDTAMYYCARLVVRDTEIWGQGTMVTVSS VL: QAVVTQEPSLTVSPGGTVTLTCASSIGAVTSGNYPNWFQQRPGQPPRALIYSTSNKHSWTPARFSGSLLGGKAALTLSGAQPEDEAEYYCLLSYSGARPVFGGGTKLTVLG | 0.675 | 1.09 | 1.02 |  |  |  | 
2 | phage clone 2H1-F (scFv, not shown: large carriers; small tags and cut ends) scFv: QQVQLVQSGAEVKKPGESLKISCKGSGYSFTSYWIGWVRQMPGKGLEWMGIIYPGDSDTRYSPSFQGQVTISADKSISTAYLQWSSLKASDTAMYYCARLVVRDTEIWGQGTMVTVSSAPQAKSSGSGSESKVDQAVVTQEPSLTVSPGGTVTLTCASSIGAVTSGNYPNWFQQRPGQPPRALIYSTSNKHSWTPARFSGSLLGGKAALTLSGAQPEDEAEYYCLLSYSGARPVFGGGTKLTVLG |  |  |  | 1.15 | 0.103 | 0.577 | 1.25

— patent US20100151566A1
